From article PMC4359947
Ends that are not written are not given here.

Target: MAGI-1 PDZ3 domain, Cy3-labelled, tag-free
Test: FRET or BRET

B1: CAR (CAR^Ex7) C-terminus, Cy5-labelled, tag-free (peptide)
peptide: GAIPVMIPAQSKDGSIV
modifications: also: Cy5 label (approximately 1 dye/peptide), site not given here
In the case of B1, the Kd is reported as 2 nM.
